In article PMC3488191, “Functional identification of the DNA packaging terminase from Pseudomonas aeruginosa phage PaP3”:

How the values were obtained:
[1] = target: T1, p01 small terminase subunit (Pseudomonas aeruginosa phage PaP3) (UniProt Q8H9R5); assay: EMSA; conditions: 50 mM Tris-HCl pH 8.0, 50 mM NaCl, 10 mM MgCl2, 5% glycerol, 1.5 uM DNA, 37 C 30 min, stopped with 20 mM EDTA; 5% native PAGE in 0.5x TBE
T1 sequence: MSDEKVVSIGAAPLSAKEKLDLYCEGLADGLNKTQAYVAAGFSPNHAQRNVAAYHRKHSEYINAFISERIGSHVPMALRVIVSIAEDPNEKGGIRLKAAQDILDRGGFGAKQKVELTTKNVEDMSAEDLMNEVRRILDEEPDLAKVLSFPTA

[2] = target: T2, p03 large terminase subunit (Pseudomonas aeruginosa phage PaP3, UniProt Q8H9R7 1-482); assay: EMSA; 10 mM Mg2+; 50 mM Tris-HCl pH 8.0, 50 mM NaCl, 10 mM MgCl2, 5% glycerol, 1.5 uM DNA, 37 C 30 min, stopped with 20 mM EDTA; 5% native PAGE in 0.5x TBE; conditions: protein: recombinant; tags: C-terminal His6 (pET-22b); label: 5'-biotin; blunt
T2 sequence: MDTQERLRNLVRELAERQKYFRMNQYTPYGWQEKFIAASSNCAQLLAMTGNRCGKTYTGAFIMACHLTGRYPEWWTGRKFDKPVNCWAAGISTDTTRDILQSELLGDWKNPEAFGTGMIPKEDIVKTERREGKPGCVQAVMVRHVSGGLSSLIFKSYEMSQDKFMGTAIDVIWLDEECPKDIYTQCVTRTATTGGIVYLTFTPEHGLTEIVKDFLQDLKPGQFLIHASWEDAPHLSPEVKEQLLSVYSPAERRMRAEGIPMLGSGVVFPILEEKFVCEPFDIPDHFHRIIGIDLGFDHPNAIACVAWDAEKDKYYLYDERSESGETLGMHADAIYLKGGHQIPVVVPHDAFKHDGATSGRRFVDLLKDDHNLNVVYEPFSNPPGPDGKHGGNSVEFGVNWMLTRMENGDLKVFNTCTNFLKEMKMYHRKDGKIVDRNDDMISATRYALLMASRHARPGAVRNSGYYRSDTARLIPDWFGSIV

[3] = target: T2, p03 large terminase subunit; assay: EMSA; 10 mM Mg2+; 0.4 uM p03; 50 mM Tris-HCl pH 8.0, 50 mM NaCl, 10 mM MgCl2, 5% glycerol, 1.5 uM DNA, 37 C 30 min, stopped with 20 mM EDTA; 5% native PAGE in 0.5x TBE; conditions: protein: recombinant; tags: C-terminal His6 (pET-22b); label: 5'-biotin; blunt

ATACTCCCCGTCGCGCTTGAACCACGGGGTCTGTCAATTGATTGCGCTGGGACAGGCTACCAGTCGGGCCTTCTATGGTACAAGGCCAGGACCTACGCTCTTTCGGAGTGTGCGTTATTCCCTCAGCTTTCGGGTTTCTCCCTTGTTCAGTCCAAGGACCGTCGAAGGTACACTTTCCCCAGGTGGCCGTCACCTGATGGGTGCCCATGTTAGAGCCGTGGGCTTGCCTTGTCAACCCT (double strand) [cos239dn]
binding [1]: no binding

B1: 24-bp non-cos DNA (dsDNA)
DNA 1: GCACTGCAGTAACTTGTCAGTCAT
DNA 2: ATGACTGACAAGTTACTGCAGTGC
binding result [2]: no binding

B2: 20-bp cos end sequence (dsDNA)
DNA 1: GCCGGCCCCTTTCCGCGTTA
DNA 2: TAACGCGGAAAGGGGCCGGC
binding result [3]: binds
